B1: Bile acid receptor (Homo sapiens), Q96RI1 (parent)
chain: MVMQFQGLENPIQISPHCSCTPSGFFMEMMSMKPAKGVLTEQVAGPLGQNLEVEPYSQYSNVQFPQVQPQISSSSYYSNLGFYPQQPEEWYSPGIYELRRMPAETLYQGETEVAEMPVTKKPRMGASAGRIKGDELCVVCGDRASGYHYNALTCEGCKGFFRRSITKNAVYKCKNGGNCVMDMYMRRKCQECRLRKCKEMGMLAECMYTGLLTEIQCKSKRLRKNVKQHADQTVNEDSEGRDLRQVTSTTKSCREKTELTPDQQTLLHFIMDSYNKQRMPQEITNKILKEEFSAEENFLILTEMATNHVQVLVEFTKKLPGFQTLDHEDQIALLKGSAVEAMFLRSAEIFNKKLPSGHSDLLEERIRNSGISDEYITPMFSFYKSIGELKMTQEEYALLTAIVILSPDRQYIKDREAVEKLQEPLLDVLQKLCKIHQPENPQHFACLLGRLTELRTFNHHHAEMLMSWRVNDHKFTPLLCEIWDVQ
partner: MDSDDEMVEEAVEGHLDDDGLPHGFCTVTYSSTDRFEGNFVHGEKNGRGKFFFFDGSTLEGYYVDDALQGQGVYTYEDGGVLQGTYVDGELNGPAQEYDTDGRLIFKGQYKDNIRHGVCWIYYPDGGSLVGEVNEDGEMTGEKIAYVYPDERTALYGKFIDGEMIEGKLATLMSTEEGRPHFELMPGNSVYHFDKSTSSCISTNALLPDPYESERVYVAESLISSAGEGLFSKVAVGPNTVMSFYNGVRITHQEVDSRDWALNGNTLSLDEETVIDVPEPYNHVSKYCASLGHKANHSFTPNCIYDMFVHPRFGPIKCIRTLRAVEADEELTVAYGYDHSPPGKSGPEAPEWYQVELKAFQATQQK

The assay covers variants of B1. The settings on record: with setd7_human SETD7, Q8WTS6.
Take MVMQFQGLENPIQISPHCSCTPSGFFMEMMSMKPAKGVLTEQVAGPLGQNLEVEPYSQYSNVQFPQVQPQISSSSYYSNLGFYPQQPEEWYSPGIYELRRMPAETLYQGETEVAEMPVTKKPRMGASAGRIKGDELCVVCGDRASGYHYNALTCEGCKGFFRRSITKNAVYKCKNGGNCVMDMYMRRKCQECRLRKCKEMGMLAECMYTGLLTEIQCKSRRLRKNVKQHADQTVNEDSEGRDLRQVTSTTKSCREKTELTPDQQTLLHFIMDSYNKQRMPQEITNKILKEEFSAEENFLILTEMATNHVQVLVEFTKKLPGFQTLDHEDQIALLKGSAVEAMFLRSAEIFNKKLPSGHSDLLEERIRNSGISDEYITPMFSFYKSIGELKMTQEEYALLTAIVILSPDRQYIKDREAVEKLQEPLLDVLQKLCKIHQPENPQHFACLLGRLTELRTFNHHHAEMLMSWRVNDHKFTPLLCEIWDVQ [K220R]: the “effect of a mutation on the interaction” value was “decreasing interaction”.

Values taken from IntAct's records for PubMed 22345554.
